Results published in the supplement of paper PMC7125110.
± gives the standard error. For some of these results: Variants at the floor of the assay were thinned out.

B1: glmS ribozyme (parent)
chain: AUAAAAGCGCCAGAACUACAGAAAUGUAGUUGACGAGGAGGAGGUUUAUCGAAUUUUCGGCGGAUGCCUCCAAA

Tests used:
Details in all cases: with glucosamine-6-phosphate
[1] = variants of: B1; test: kcat; higher = faster cleavage; RNA array
In short: (§1)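 Ribozyme variants carrying barcodes were transcribed in situ on sequenced MiSeq chips by E. coli RNA polymerase and tracked at 37 °C with a hybridised Cy3 probe. They were exposed to 40 μM to 10 mM glucosamine-6-phosphate in HEPES/KCl/Mg(OAc)2 buffer. kobs came from exponential decay fits of normalised per-tile medians, and kcat and KM from weighted Michaelis–Menten fits.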

[2] = variants of: B1; test: self-cleavage kobs at 40 uM GlcN6P; higher = faster cleavage; RNA array
In short: as §1

[3] = variants of: B1; test: self-cleavage kobs at 160 uM GlcN6P; higher = faster cleavage; RNA array
In short: as §1

[4] = variants of: B1; test: self-cleavage kobs at 640 uM GlcN6P; higher = faster cleavage; RNA array
In short: as §1

[5] = variants of: B1; test: self-cleavage kobs at 2500 uM GlcN6P; higher = faster cleavage; RNA array
In short: as §1

[6] = variants of: B1; test: self-cleavage kobs at 10000 uM GlcN6P; higher = faster cleavage; RNA array
In short: as §1

[7] = variants of: B1; test: KM; higher = weaker cofactor use; RNA array
In short: as §1

Variant	kcat [1]	self-cleavage kobs at 40 uM GlcN6P [2]	self-cleavage kobs at 160 uM GlcN6P [3]	self-cleavage kobs at 640 uM GlcN6P [4]	self-cleavage kobs at 2500 uM GlcN6P [5]	self-cleavage kobs at 10000 uM GlcN6P [6]	KM [7]
A42G U49A	1.03e-05 ± 2.5e-06 s⁻¹						
G43C U45G	0.00237 ± 0.00082 s⁻¹	8.35e-05 ± 1.2e-05 s⁻¹	0.000135 ± 2.3e-05 s⁻¹	0.000694 ± 0.00012 s⁻¹	0.00109 ± 0.00024 s⁻¹	0.00211 ± 0.00027 s⁻¹	
G41A U55G	0.000144 ± 2.3e-05 s⁻¹		5.67e-05 ± 1.5e-05 s⁻¹	0.000142 ± 3.9e-05 s⁻¹	0.000107 ± 1.9e-05 s⁻¹	0.000179 ± 2.9e-05 s⁻¹	
A42U U65G C68A	2.17e-05 ± 1.1e-05 s⁻¹		< 1e-05 s⁻¹				
G41C U47G	0.000713 ± 0.00028 s⁻¹				3.37e-05 ± 1.6e-05 s⁻¹	0.000117 ± 2.8e-05 s⁻¹	
U45G A53G	0.0084 ± 0.0028 s⁻¹	0.000258 ± 4.3e-05 s⁻¹	0.000367 ± 0.00012 s⁻¹	0.00204 ± 0.00042 s⁻¹	0.00535 ± 0.0012 s⁻¹	0.00681 ± 0.0011 s⁻¹	2020 ± 990 µM
U45G	0.011 ± 0.0012 s⁻¹	0.000203 ± 3.8e-06 s⁻¹	0.000679 ± 2.9e-05 s⁻¹	0.00227 ± 5.8e-05 s⁻¹	0.00566 ± 0.00017 s⁻¹	0.00968 ± 0.00036 s⁻¹	2240 ± 300 µM
U45C	0.00494 ± 0.00052 s⁻¹	7.81e-05 ± 1.8e-06 s⁻¹	0.000232 ± 9.5e-06 s⁻¹	0.000897 ± 2.2e-05 s⁻¹	0.00247 ± 6.8e-05 s⁻¹	0.00385 ± 9.4e-05 s⁻¹	2740 ± 390 µM
U45A	0.0731 ± 0.026 s⁻¹	0.00192 ± 4e-05 s⁻¹	0.00532 ± 0.00022 s⁻¹	0.0167 ± 0.00063 s⁻¹	0.0529 ± 0.0042 s⁻¹	0.0751 ± 0.0041 s⁻¹	1680 ± 700 µM
U45A U65C	0.00412 ± 0.0005 s⁻¹	9.95e-05 ± 1.1e-05 s⁻¹	0.000318 ± 6.3e-05 s⁻¹	0.000994 ± 0.00014 s⁻¹	0.00204 ± 0.00054 s⁻¹	0.00374 ± 0.00047 s⁻¹	1770 ± 290 µM
G43U A52G	< 1e-05 s⁻¹	< 1e-05 s⁻¹	< 1e-05 s⁻¹	< 1e-05 s⁻¹			5960 ± 590 µM
A42C C70U	1.24e-05 ± 3.3e-06 s⁻¹						
A42C C70G	4.99e-05 ± 4.3e-06 s⁻¹				3.37e-05 ± 7.9e-06 s⁻¹	4.32e-05 ± 6.7e-06 s⁻¹	1410 ± 550 µM
G41A A42C	4.51e-05 ± 1.7e-05 s⁻¹				6.51e-05 ± 1.8e-05 s⁻¹	3.53e-05 ± 1.3e-05 s⁻¹	
U45C U54C	0.00224 ± 0.00051 s⁻¹		0.000142 ± 3.9e-05 s⁻¹	0.00057 ± 0.00012 s⁻¹	0.00105 ± 0.00023 s⁻¹	0.00213 ± 0.00063 s⁻¹	2240 ± 770 µM
A42G A53U	0.0339 ± 0.012 s⁻¹	0.000764 ± 0.00011 s⁻¹	0.00186 ± 0.00035 s⁻¹	0.0076 ± 0.0013 s⁻¹	0.0159 ± 0.0028 s⁻¹	0.0373 ± 0.009 s⁻¹	2240 ± 990 µM

Variant	kcat [1]	self-cleavage kobs at 40 uM GlcN6P [2]	self-cleavage kobs at 160 uM GlcN6P [3]	self-cleavage kobs at 640 uM GlcN6P [4]	self-cleavage kobs at 2500 uM GlcN6P [5]	self-cleavage kobs at 10000 uM GlcN6P [6]	KM [7]
G41A U45C	0.0002 ± 3.8e-05 s⁻¹		6.67e-05 ± 1.8e-05 s⁻¹	0.000158 ± 3.6e-05 s⁻¹	0.000154 ± 3.9e-05 s⁻¹	0.000372 ± 0.00017 s⁻¹	303 ± 140 µM
G44U A53G	0.000308 ± 2.1e-05 s⁻¹		3.95e-05 ± 1.8e-05 s⁻¹		0.000223 ± 6e-05 s⁻¹	0.00028 ± 3.8e-05 s⁻¹	997 ± 240 µM
A42C U55G	< 1e-05 s⁻¹	< 1e-05 s⁻¹					
A42U U55C	0.000267 ± 2.5e-05 s⁻¹			8.56e-05 ± 9.8e-06 s⁻¹	0.000198 ± 3e-05 s⁻¹	0.000223 ± 3e-05 s⁻¹	1350 ± 250 µM
G44U C68U	2.53e-05 ± 4.3e-07 s⁻¹	< 1e-05 s⁻¹				2.31e-05 ± 7.7e-06 s⁻¹	915 ± 100 µM
A42G U65A	0.00459 ± 0.0018 s⁻¹	0.000318 ± 9.9e-05 s⁻¹	0.000409 ± 8.8e-05 s⁻¹	0.00121 ± 0.00028 s⁻¹	0.00291 ± 0.00077 s⁻¹	0.00423 ± 0.0014 s⁻¹	
A42C U69C	0.000251 ± 7e-05 s⁻¹			0.000126 ± 2.7e-05 s⁻¹	0.000165 ± 6.2e-05 s⁻¹	0.000346 ± 0.00013 s⁻¹	
G40U U57A	6e-05 ± 6.8e-06 s⁻¹	< 1e-05 s⁻¹				2.24e-05 ± 1e-05 s⁻¹	
G40U U69C	8.37e-05 ± 1.1e-05 s⁻¹			6.56e-05 ± 2e-05 s⁻¹	9.26e-05 ± 1.9e-05 s⁻¹	7.39e-05 ± 1.2e-05 s⁻¹	
U45C A48U	7.71e-05 ± 4.6e-06 s⁻¹				6.49e-05 ± 1.5e-05 s⁻¹	6.96e-05 ± 1.9e-05 s⁻¹	628 ± 170 µM
U45A U56C	0.00585 ± 0.0022 s⁻¹	7.22e-05 ± 1e-05 s⁻¹	0.000234 ± 3.5e-05 s⁻¹	0.0014 ± 0.00014 s⁻¹	0.00259 ± 0.00069 s⁻¹	0.00411 ± 0.00072 s⁻¹	3070 ± 1400 µM
A42C C67A	0.000122 ± 1.6e-05 s⁻¹			5.06e-05 ± 1.6e-05 s⁻¹	5.66e-05 ± 2.8e-05 s⁻¹	0.000114 ± 1.7e-05 s⁻¹	1160 ± 560 µM
U45A G59A	0.00059 ± 0.00018 s⁻¹	< 1e-05 s⁻¹		2.71e-05 ± 1e-05 s⁻¹	6.8e-05 ± 3.3e-05 s⁻¹	0.000234 ± 3.9e-05 s⁻¹	
U45A U46C	0.0497 ± 0.021 s⁻¹	0.000726 ± 0.00015 s⁻¹	0.00197 ± 0.00065 s⁻¹		0.0334 ± 0.017 s⁻¹	0.0365 ± 0.012 s⁻¹	3030 ± 1500 µM
G43A U45A	5.51e-05 ± 7.6e-07 s⁻¹				2.63e-05 ± 1.1e-05 s⁻¹	4.33e-05 ± 1.3e-05 s⁻¹	2720 ± 100 µM
